Data published in US20180326086A1 (UNIVERSITY OF BRITISH COLUMBIA, published 2018).

How the values were obtained:
Experiment in all cases: SPR direct binding, antigen immobilized, hybridoma supernatant
[1] = biological target: T1, A-beta42 monomer (human)
T1 construct: also called Aβ 42 Monomer; A-beta 1-42 monomer
Protocol: (§1) SPR Analysis All SPR measurements were performed using a Molecular Affinity Screening System (MASS-1) (Sierra Sensors GmbH, Hamburg, Germany), an analytical biosensor that employs high intensity laser light and high speed optical scanning to monitor binding interactions in real time. The primary screening of tissue culture supernatants was performed using an SPR direct binding assay, whereby BSA-conjugated peptides, A-Beta42 Monomer and A-beta42 Oligomer are covalently immobilized on individual flow cells of a High Amine Capacity (HAC) sensorchip (Sierra Sensors GmbH, Hamburg, Germany) and antibodies flowed over the surface. Protein G purified mAbs were analyzed in a secondary screen using an SPR indirect (capture) binding assay, whereby the antibodies were captured on a protein A-derivatized sensorchip (XanTec Bioanalytics GmbH, Duesseldorf, Germany) and A-Beta40 Monomer, A-beta42 Oligomer, soluble brain extracts and cerebrospinal fluid flowed over the surface. The specificity of the antibodies was verified in an SPR direct binding assay by covalently immobilizing A-Beta42 Monomer and A-beta42 Oligomer on individual flow cells of a HAC sensorchip and flowing purified mAbs.
(§2) Clones were retested for their ability to bind cyclic peptide, linear peptide, A-beta 1-42 monomer and A-beta 1-42 oligomers prepared as described above. Binding assays were performed using SPR as described above (Direct binding assays).

[2] = biological target: T2, A-beta42 oligomer (human)
T2 construct: also called Aβ 42 Oligomer; A-beta 1-42 oligomers
T2 sequence (peptide, as listed by the source): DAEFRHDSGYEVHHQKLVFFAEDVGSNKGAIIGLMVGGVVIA
Protocol: as §1, §2

[3] = biological target: T3, cyclo(CGHDSGG)-conjugated-BSA (SEQ ID NO: 2) (bovine, UniProt P02769 25-607, head-to-tail cyclized (amide bond between N-terminus and C-terminus); Cys conjugated to BSA through SMCC)
T3 construct: HDSG is A-beta residues 6-9; C, G and GG are linker residues; also called Cyclic-Peptide; cyclic peptide
T3 sequence (P02769 25-607 limits assumed): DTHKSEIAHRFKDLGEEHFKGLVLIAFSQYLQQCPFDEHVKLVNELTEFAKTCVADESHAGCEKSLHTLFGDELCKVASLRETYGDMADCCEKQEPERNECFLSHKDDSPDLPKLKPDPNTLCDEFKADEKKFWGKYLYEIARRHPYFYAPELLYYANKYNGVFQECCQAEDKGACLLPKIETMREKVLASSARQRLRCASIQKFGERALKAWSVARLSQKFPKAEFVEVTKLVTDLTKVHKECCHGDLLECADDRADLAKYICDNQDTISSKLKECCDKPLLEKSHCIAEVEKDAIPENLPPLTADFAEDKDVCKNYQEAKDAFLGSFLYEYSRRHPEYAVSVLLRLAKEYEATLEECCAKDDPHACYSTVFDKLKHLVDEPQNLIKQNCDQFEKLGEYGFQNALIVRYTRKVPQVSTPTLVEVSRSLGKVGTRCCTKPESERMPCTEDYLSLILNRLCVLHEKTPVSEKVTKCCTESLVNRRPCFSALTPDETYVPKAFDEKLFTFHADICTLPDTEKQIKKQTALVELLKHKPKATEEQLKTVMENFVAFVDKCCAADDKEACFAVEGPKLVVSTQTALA
Protocol: as §1, §2

T1 sequence (peptide, as listed by the source): as the sequence (peptide, as listed by the source) above

B1: 303-25-1B4 (antibody, V domains shown)
VH: QVQLQQPGAELVRPGASVKLSCKASGYTFTSYWMNWVKQRPGQGLEWIGMIDPSDSQTHYNQMFKDKATLTVDKSSSTAYLQLSSLTSEDSAVYYCSRGGYWGQGTTLTVSS
VL: DIQMTQSPSSLSASLGGKVTITCKASQDINNYIAWYQHKPGKGPRQLIYYTSTLQPGIPSRFSGSGSGRDYSFTISDLEPEDIATYYCLQYDNLWTFGGGTKLEIK
notes: Mouse monoclonal raised against cyclo(CGHDSGG)-KLH; also called clone 25
[1]
  SPR binding response (RU): 56.5 RU
[2]
  SPR binding response (RU): 109 RU
[3]
  SPR binding response (RU): 136 RU
